Laboratory results as given in publication PMC4728290.

Target: human insulin receptor fused with Renilla luciferase 8 (human) (UniProt P06213)

## bovine insulin (ligand)
  EC50 of insulin for the insulin-induced BRET increase between hIR–Rluc8 and Grb2–Venus (m1 + m3), live HEK293 cells, insulin 0.001-10,000 nM: 4.4 nM
  EC50 of insulin for the insulin-induced BRET increase between hIR–Rluc8 and IRS1–YFP (m1 + m2), live HEK293 cells, insulin 0.001-10,000 nM: 2.2 nM
